Residue numbers refer to the chain shown, from its start. Names and notes keep the numbering of the source. Each block holds one binder with its values, some of them ahead of it. No end group written: not given here. fluorescein = N-terminal fluorescein label
T1: BP230 41-162 (human, UniProt Q03001-8 41-162, Oregon Green 488 on thiol groups)
T1 sequence (looked up): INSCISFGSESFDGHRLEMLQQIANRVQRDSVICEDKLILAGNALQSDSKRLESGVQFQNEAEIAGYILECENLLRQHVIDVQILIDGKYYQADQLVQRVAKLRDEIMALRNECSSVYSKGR

T2: fluorescein-labeled BP230 peptide 37-55 (human, UniProt Q03001-8 37-55)
T2 peptide (looked up): fluorescein-GPTLINSCISFGSESFDGH

T3: BP230 10-162 T39D (human, UniProt Q03001-8 10-162, T39D, Oregon Green 488 on thiol groups)
T3 sequence (looked up): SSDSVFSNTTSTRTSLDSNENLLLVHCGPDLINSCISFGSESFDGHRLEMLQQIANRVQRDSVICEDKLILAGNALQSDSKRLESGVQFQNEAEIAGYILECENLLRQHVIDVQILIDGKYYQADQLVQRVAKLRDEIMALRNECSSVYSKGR

T4: β4-CS-FnIII-3,4 (1436-1666) T1663R (human, UniProt P16144-2 1436-1666, T1663R)
T4 sequence (looked up): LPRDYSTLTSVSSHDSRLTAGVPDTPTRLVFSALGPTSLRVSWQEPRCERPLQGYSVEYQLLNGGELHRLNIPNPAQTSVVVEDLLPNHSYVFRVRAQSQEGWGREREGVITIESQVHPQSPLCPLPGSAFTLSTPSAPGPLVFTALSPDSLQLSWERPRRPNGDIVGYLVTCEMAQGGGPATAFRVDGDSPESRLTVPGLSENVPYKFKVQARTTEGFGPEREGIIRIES

T5: β4-FnIII-3,4 (1457-1666) mutant T1663R (human, UniProt P16144-2 1457-1666, T1663R)
T5 sequence (looked up): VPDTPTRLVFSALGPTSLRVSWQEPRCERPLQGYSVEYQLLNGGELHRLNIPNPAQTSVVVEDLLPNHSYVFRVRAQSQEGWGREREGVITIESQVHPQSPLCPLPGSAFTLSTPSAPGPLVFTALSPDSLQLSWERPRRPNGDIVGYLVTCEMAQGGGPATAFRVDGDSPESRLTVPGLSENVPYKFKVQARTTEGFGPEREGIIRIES

B1: integrin β4 1436-1666 (β4-CS-FnIII-3,4) (domain or fragment, human, UniProt P16144-2 1436-1666, looked up)
chain: T4 sequence (looked up) with R228T
B2: BP230 10-162 S46A (domain or fragment, human, UniProt Q03001-8 10-162, looked up)
chain: T3 sequence (looked up) with D30T, S37A
modifications: Oregon Green 488 on thiol groups
B3: β4-CS-FnIII-3,4 (1436-1666) P1576R (domain or fragment, human, UniProt P16144-2 1436-1666, looked up)
chain: T4 sequence (looked up) with P141R, R228T
B4: fluorescein-labeled BP230 peptide 26-55 (peptide, UniProt Q03001-8 26-55, looked up)
peptide: fluorescein-DSNENLLLVHCGPTLINSCISFGSESFDGH
modifications: cysteine pairing not given here
B5: β4-CS-FnIII-3,4 (1436-1666) I1661R/T1663R (domain or fragment, human, UniProt P16144-2 1436-1666, looked up)
chain: T4 sequence (looked up) with I226R

How the values were obtained:
[1] = target: fluorescein-labeled BP230 peptide 26-47 (human) (UniProt Q03001); experiment: fluorescence polarisation
BP230 41-162 = target: T1, BP230 41-162; experiment: fluorescence polarisation
[2] = target: T2, fluorescein-labeled BP230 peptide 37-55; experiment: fluorescence polarisation
BP230 10-162 T39D = target: T3, BP230 10-162 T39D; experiment: fluorescence polarisation
[3] = target: B1; experiment: fluorescence polarisation
[4] = target: B4; experiment: fluorescence polarisation
[5] = target: T4, β4-CS-FnIII-3,4 (1436-1666) T1663R; experiment: fluorescence polarisation
[6] = target: T5, β4-FnIII-3,4 (1457-1666) mutant T1663R; experiment: crystal structure

Binder: B1
fold increase in Kd against the BP230 26-55 peptide [1]: 5 fold | fold increase in Kd against the longer BP230 constructs (BP230 41-162): 5 fold | fold increase in Kd against the BP230 26-55 peptide [2]: 3 fold | fold increase in Kd against WT BP230 10-162 (BP230 10-162 T39D): ~3 fold

Binder: B2
binding result [3]: binds

Binder: B3
fold increase in Kd against WT β4 [4]: > 2 fold

Binder: B4
binding result [5]: binds

Binder: B5
fold reduction in Kd against WT β4 [4]: ~8 fold

binding result [6]: binds
Binder: DSNENLLLVHCGPTLINSCISFGSESFDGH (peptide, UniProt Q03001-8 26-55, looked up) [unlabeled BP230 peptide 26-55]

— publication doi:10.1101/402123 (bioRxiv, 2018)
